# Molecular target: m33 T cell receptor (high-affinity CDR3α mutant of 2C, displayed on 58−/− T cell hybridoma cells) (mouse)
# Assay: flow cytometry on cells
substance,measurement,value
SIYRYYGL/K^b tetramer (biotinylated SIY/K^b monomers on streptavidin:phycoerythrin) (from UniProt P01887 21-119) (peptide-MHC),percent of cells positive for tetramer,84%

# — publication PMC2680719
